Here are results for ten sequences from the supplement of paper PMC5998384.

The test system of data set [1] is HeLa Kyoto. Briefly: solubility in G1/S (NP-40 vs SDS abundance) (log2 ratio); higher = more soluble. The conditions noted are these: cell cycle stage: G1/S.
Data set [2] concerns HeLa Kyoto. The experiment in a line: solubility change mitosis vs G1/S (difference of NP-40 vs SDS log2 ratios) (log2 ratio difference); higher = more soluble in mitosis.
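For solubility change mitosis vs G1/S (difference of NP-40 vs SDS log2 ratios) in this document: synchronized HeLa Kyoto cells (double thymidine block for G1/S, nocodazole release for mitosis), protein amounts in NP-40 versus SDS lysates quantified by mass spectrometry, three biological replicates.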
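For solubility in G1/S (NP-40 vs SDS abundance) in this document: HeLa Kyoto cells arrested at G1/S by double thymidine block, proteins quantified by TMT10plex mass spectrometry in mild NP-40 versus SDS extracts, three biological replicates.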

As to “MSELKDCPLQFHDFKSVDHLKVCPRYTAVLARSEDDGIGIEELDTLQLELETLLSSASRRLRVLEAETQILTDWQDKKGDRRFLKLGRDHELGAPPKHGKPKKQKLEGKAGHGPGPGPGRPKSKNLQPKIQEYEFTDDPIDVPRIPKNDAPNRFWASVEPYCADITSEEVRTLEELLKPPEDEAEHYKIPPLGKHYSQRWAQEDLLEEQKDGARAAAVADKKKGLMGPLTELDTKDVDALLKKSEAQHEQPEDGCPFGALTQRLLQALVEENIISPMEDSPIPDMSGKESGADGASTSPRNQNKPFSVPHTKSLESRIKEELIAQGLLESEDRPAEDSEDEVLAELRKRQAELKALSAHNRTKKHDLLRLAKEEVSRQELRQRVRMADNEVMDAFRKIMAARQKKRTPTKKEKDQAWKTLKERESILKLLDG [TADA3]”, the “solubility in G1/S (log2)” value in the data set on HeLa Kyoto [1] stood at 0.646. In the data set with HeLa Kyoto [2], the “solubility change mitosis (log2)” value worked out at 0.286.
The matching figures for “MSFKREGDDWSQLNVLKKRRVGDLLASYIPEDEALMLRDGRFACAICPHRPVLDTLAMLTAHRAGKKHLSSLQLFYGKKQPGKERKQNPKHQNELRREETKAEAPLLTQTRLITQSALHRAPHYNSCCRRKYRPEAPGPSVSLSPMPPSEVKLQSGKISREPEPAAGPQAEESATVSAPAPMSPTRRRALDHYLTLRSSGWIPDGRGRWVKDENVEFDSDEEEPPDLPLD [SCNM1]”: 0.0519 and 0.462.
As for “MSFRGGGRGGFNRGGGGGGFNRGGSSNHFRGGGGGGGGGNFRGGGRGGFGRGGGRGGFNKGQDQGPPERVVLLGEFLHPCEDDIVCKCTTDENKVPYFNAPVYLENKEQIGKVDEIFGQLRDFYFSVKLSENMKASSFKKLQKFYIDPYKLLPLQRFLPRPPGEKGPPRGGGRGGRGGGRGGGGRGGGRGGGFRGGRGGGGGGFRGGRGGGFRGRGH [GAR1]”, the “solubility in G1/S (log2)” value in the data set on HeLa Kyoto [1] was -1.36. In addition, in the data set with HeLa Kyoto [2], the “solubility change mitosis (log2)” value amounted to 1.41.
“MSGPCGEKPVLEASPTMSLWEFEDSHSRQGTPRPGQELAAEEASALELQMKVDFFRKLGYSSTEIHSVLQKLGVQADTNTVLGELVKHGTATERERQTSPDPCPQLPLVPRGGGTPKAPNLEPPLPEEEKEGSDLRPVVIDGSNVAMSHGNKEVFSCRGILLAVNWFLERGHTDITVFVPSWRKEQPRPDVPITDQHILRELEKKKILVFTPSRRVGGKRVVCYDDRFIVKLAYESDGIVVSNDTYRDLQGERQEWKRFIEERLLMYSFVNDKFMPPDDPLGRHGPSLDNFLRKKPLTLEHRKQPCPYGRKCTYGIKCRFFHPERPSCPQRSVADELRANALLSPPRAPSKDKNGRRPSPSSQSSSLLTESEQCSLDGKKLGAQASPGSRQEGLTQTYAPSGRSLAPSGGSGSSFGPTDWLPQTLDSLPYVSQDCLDSGIGSLESQMSELWGVRGGGPGEPGPPRAPYTGYSPYGSELPATAAFSAFGRAMGAGHFSVPADYPPAPPAFPPREYWSEPYPLPPPTSVLQEPPVQSPGAGRSPWGRAGSLAKEQASVYTKLCGVFPPHLVEAVMGRFPQLLDPQQLAAEILSYKSQHPSE [ZC3H12A]”: the “solubility in G1/S (log2)” value in the data set on HeLa Kyoto [1] came to 0.15. In the data set on HeLa Kyoto [2], the “solubility change mitosis (log2)” value was -0.0716.
For the sequence “MSGSDGGLEEEPELSITLTLRMLMHGKEVGSIIGKKGETVKRIREQSSARITISEGSCPERITTITGSTAAVFHAVSMIAFKLDEDLCAAPANGGNVSRPPVTLRLVIPASQCGSLIGKAGTKIKEIRETTGAQVQVAGDLLPNSTERAVTVSGVPDAIILCVRQICAVILESPPKGATIPYHPSLSLGTVLLSANQGFSVQGQYGAVTPAEVTKLQQLSSHAVPFATPSVVPGLDPGTQTSSQEFLVPNDLIGCVIGRQGSKISEIRQMSGAHIKIGNQAEGAGERHVTITGSPVSIALAQYLITACLETAKSTSGGTPSSAPADLPAPFSPPLTALPTAPPGLLGTPYAISLSNFIGLKPMPFLALPPASPGPPPGLAAYTAKMAAANGSKKAERQKFSPY [PCBP4]”, the “solubility in G1/S (log2)” value in the data set with HeLa Kyoto [1] is 0.0231. Also, the “solubility change mitosis (log2)” value with HeLa Kyoto [2] was found to be 0.0329.
Take “MSISLSSLILLPIWINMAQIQQGGPDEKEKTTALKDLLSRIDLDELMKKDEPPLDFPDTLEGFEYAFNEKGQLRHIKTGEPFVFNYREDLHRWNQKRYEALGEIITKYVYELLEKDCNLKKVSIPVDATESEPKSFIFMSEDALTNPQKLMVLIHGSGVVRAGQWARRLIINEDLDSGTQIPFIKRAVAEGYGVIVLNPNENYIEVEKPKIHVQSSSDSSDEPAEKRERKDKVSKETKKRRDFYEKYRNPQREKEMMQLYIRENGSPEEHAIYVWDHFIAQAAAENVFFVAHSYGGLAFVELMIQREADVKNKVTAVALTDSVHNVWHQEAGKTIREWMRENCCNWVSSSEPLDTSVESMLPDCPRVSAGTDRHELTSWKSFPSIFKFFTEASEAKTSSLKPAVTRRSHRIKHEEL [FAM172A]”: the “solubility in G1/S (log2)” value in the data set with HeLa Kyoto [1] is 0.202. The “solubility change mitosis (log2)” value in the data set on HeLa Kyoto [2] is -0.00146.
For “MSKRLSPQLQHNITEDAYCETHLEPTRLFCDVDQITLCSKCFQSQEHKHHMVCGIQEAAENYRKLFQEILNTSREKLEAAKSILTDEQERMAMIQEEEQNFKKMIESEYSMRLRLLNEECEQNLQRQQECISDLNLRETLLNQAIKLATELEEMFQEMLQRLGRVGRENMEKLKESEARASEQVRSLLKLIVELEKKCGEGTLALLKNAKYSLERSKSLLLEHLEPAHITDLSLCHIRGLSSMFRVLQRHLTLDPETAHPCLALSEDLRTMRLRHGQQDGAGNPERLDFSAMVLAAESFTSGRHYWEVDVEKATRWQVGIYHGSADAKGSTARASGEKVLLTGSVMGTEWTLWVFPPLKRLFLEKKLDTVGVFLDCEHGQISFYNVTEMSLIYNFSHCAFQGALRPVFSLCIPNGDTSPDSLTILQHGPSCDATVSP [TRIML2]”, in the data set on HeLa Kyoto [1], the “solubility in G1/S (log2)” value stood at 0.0183. The “solubility change mitosis (log2)” value with HeLa Kyoto [2] was -0.17.
For “MSMILSASVIRVRDGLPLSASTDYEQSTGMQECRKYFKMLSRKLAQLPDRCTLKTGHYNINFISSLGVSYMMLCTENYPNVLAFSFLDELQKEFITTYNMMKTNTAVRPYCFIEFDNFIQRTKQRYNNPRSLSTKINLSDMQTEIKLRPPYQISMCELGSANGVTSAFSVDCKGAGKISSAHQRLEPATLSGIVGFILSLLCGALNLIRGFHAIESLLQSDGDDFNYIIAFFLGTAACLYQCYLLVYYTGWRNVKSFLTFGLICLCNMYLYELRNLWQLFFHVTVGAFVTLQIWLRQAQGKAPDYDV [SEC22A]”, the “solubility in G1/S (log2)” value in the data set on HeLa Kyoto [1] is -0.17. Moreover, the “solubility change mitosis (log2)” value with HeLa Kyoto [2] is -0.0544.
As for “MSRQTATALPTGTSKCPPSQRVPALTGTTASNNDLASLFECPVCFDYVLPPILQCQSGHLVCSNCRPKLTCCPTCRGPLGSIRNLAMEKVANSVLFPCKYASSGCEITLPHTEKADHEELCEFRPYSCPCPGASCKWQGSLDAVMPHLMHQHKSITTLQGEDIVFLATDINLPGAVDWVMMQSCFGFHFMLVLEKQEKYDGHQQFFAIVQLIGTRKQAENFAYRLELNGHRRRLTWEATPRSIHEGIATAIMNSDCLVFDTSIAQLFAENGNLGINVTISMC [SIAH1]”, in the data set on HeLa Kyoto [1], the “solubility in G1/S (log2)” value stood at 0.247. For the same sequence, the “solubility change mitosis (log2)” value with HeLa Kyoto [2] is -0.11.
Turning to “MSSESKEQHNVSPRDSAEGNDSYPSGIHLELQRESSTDFKQFETNDQCRPYHRILIERQEKSDTNFKEFVIKKLQKNCQCSPAKAKNMILGFLPVLQWLPKYDLKKNILGDVMSGLIVGILLVPQSIAYSLLAGQEPVYGLYTSFFASIIYFLLGTSRHISVGIFGVLCLMIGETVDRELQKAGYDNAHSAPSLGMVSNGSTLLNHTSDRICDKSCYAIMVGSTVTFIAGVYQVAMGFFQVGFVSVYLSDALLSGFVTGASFTILTSQAKYLLGLNLPRTNGVGSLITTWIHVFRNIHKTNLCDLITSLLCLLVLLPTKELNEHFKSKLKAPIPIELVVVVAATLASHFGKLHENYNSSIAGHIPTGFMPPKVPEWNLIPSVAVDAIAISIIGFAITVSLSEMFAKKHGYTVKANQEMYAIGFCNIIPSFFHCFTTSAALAKTLVKESTGCHTQLSGVVTALVLLLVLLVIAPLFYSLQKSVLGVITIVNLRGALRKFRDLPKMWSISRMDTVIWFVTMLSSALLSTEIGLLVGVCFSIFCVILRTQKPKSSLLGLVEESEVFESVSAYKNLQIKPGIKIFRFVAPLYYINKECFKSALYKQTVNPILIKVAWKKAAKRKIKEKVVTLGGIQDEMSVQLSHDPLELHTIVIDCSAIQFLDTAGIHTLKEVRRDYEAIGIQVLLAQCNPTVRDSLTNGEYCKKEEENLLFYSVYEAMAFAEVSKNQKGVCVPNGLSLSSD [SLC26A2]”, the “solubility in G1/S (log2)” value in the data set on HeLa Kyoto [1] is -0.0844. The “solubility change mitosis (log2)” value with HeLa Kyoto [2] was -0.0606.
